Experimental data as given in US20230391859A1 (Novo Nordisk, published 2023).

Key:
aggregated TTR [1] = target: T1, aggregated TTR (UniProt P02766 21-147); test: BIACORE (SPR); off-rate from amyloid (aggregated TTR)
monomeric TTR [2] = target: T2, monomeric TTR (UniProt P02766 21-147); test: BIACORE (SPR); monomeric TTR (affinity)
aggregated TTR [3] = target: T1, aggregated TTR; test: BIACORE (SPR), apparent affinity with avidity; aggregated TTR; apparent affinity (affinity+avidity)
aggregated TTR [4] = target: T1, aggregated TTR; test: BIACORE (SPR), apparent affinity with avidity; same value in mass units; same KD in mass units
monomeric TTR [5] = target: T2, monomeric TTR; test: BIACORE (SPR); off-rate from monomers

B1: PRX004 (antibody, human IgG1, kappa, V domains shown)
VH: EVQLVESGGGLVQPGGSLKLSCAASGFTFSSYTMSWVRQTPEKRLELVAEINNSGDTTYYPDTVKGRFTISRDNAKNTLYLQMSSLKSEDTAMYYCARHYYYGGGYGGWFFDVWGQGTLVTVSS
VL: DIVMTQSPLSLPVTPGEPASISCRSSKSLLHSNGNTYLYWFLQKPGQSPQLLIYRVSNLASGVPSRFSGSGSGTDFTLKISRVEAEDVGVYYCMQHLEYPLTFGQGTKLEIKR
notes: Humanized IgG1 kappa monoclonal antibody; also called humanized immunoglobulin (Ig) G1 kappa mAb
B1 showed a koff (aggregated TTR [1]) of 0.0002 s⁻¹, a Kd (monomeric TTR [2]) of 134 nM and a Kd (aggregated TTR [3]) of 3.2 nM. For the same binder, the Kd (aggregated TTR [4]) was 0.48 µg/mL and the koff (monomeric TTR [5]) was 0.0037 s⁻¹.
